Assay results published in the DeepSol protein solubility set.

Experiment: soluble on expression in E. coli; label from the status in PepcDB or PDB records

Row | Sequence | soluble on expression in E. coli
1 | MGSDKIHHHHHHMDSVDLEVLRSSVRWQQEGHRVLLVTVVRTWGSSPRPEGAMLAVRDDGLVVGSVSGGCIEDDLIDRVRRLGITADHPESVKYGISAEEAHRFGLPCGGTIELVTEPLKPASGIAELLDAVENGRLATRTLDMATGTATLGPAEATDGLVFDGNSLLTIHGPRYRMLVIGAGQLSKYLCQIAVGLGFQVTVCDPREEYTETWDIPGVTMVRTMPDDTVTDMKLDERCAVIALTHDPKLDDLALMEALRTRAFYVGALGSRRNNQARRERLKEFDLNDVQLARLHGPVGIFIGSRTPPEIAISILAEVVAAKNHVSLPDILQVEGAKAARELAAGTGSSCDT | not soluble
2 | MGKKKNKKTEVQQPDPMRKNWIMENMDSGVIYLLESWLKAKSQETGKEISDIFANAVEFNIVLKDWGKEKLEETNTEYQNQQRKLRKTYIEYYDREMK | soluble
3 | MNTMKNVTKRSFQTIAIVGKPRHDNALETHLAVYNWLKDRHYSVLVEEKIAEQLQLPNGKRIEEIGQIADLVIVIGGDGNMLGMARSLAKYQVPLIGINRGNLGFLTDIAPQSAFEQLYSCLEKGEFIIEQRFLLEAQIEQNGKIISANNALNEVAIHPTQVARIIEFEVYIDSKFAFSQRSDGLIIATPTGSTAYSLSAGGPILTPNMNAIALVPMHPHALSSRPLVIDGDSHISLRFAQYNQPNLEISCDGQDDLPFTPEDRIIVRKSPDILHLLHLKDYNYFTVLGSKLGWSSKLF | soluble
4 | KGKSFIWIKRQLDPKVAEEVKALGLENFVFEKELKRHYPMGNLFAHVIGFTDIDGKGQEGLELSLEDSLHGEDGAEVVLRDRQGNIVDSLDSPRNKAPKNGKDIILSLD | not soluble
5 | MGSDKIHHHHHHMAPLRIRYQTHEFGVLDIHIRTLRDNQEFEDINGEAEKLGISSATWPLFGIVWPSEQVLSHHMLDYPIEGKRILEVGCGIGLASLVLNHRLADITATDYHPETGSFLSQNVALNKGRTIPFVRTGWADETSKLGLFDLIIGSDLLYEQEHADLLSQFIEQHAKPICDVILVDPGRGNHAKFSKRMVTLGYEHSQHKPIHTEFLLAPFGGQILSYSRTKS | not soluble
6 | MNNAKTAVTSRSVISLNSPIFLRQFYFEILNRLQVSSIIPKSKSEYVDAHMIRVSIEPQPTAFAYVFEYSTISTEPDNWNFAGASSKPEATFSILDPCRDYQFRVIIVIRSSNPAAVFDIIRPRPIPVQLPPFILTQPQISIEMPRVNNFNASGDLKLYVKWSLPYGYIDGDIYSYESPALYPIQCSTPEGEIPTPRIEIVKGGGRLAVWLPPSVLEARCRMWVEVRMLPRCVRLEPFNIQKNIEIDCSKNPSLDVCSKGR | not soluble
7 | MDELNRGHAGRTVIRNIEAACEMDPEKRVVISKTDQGSEANMPGHWTGCARPTRDPFVPFVAGRGESVAVRYNSRFGRRFDDQSVNGQPDPSLAYVFLGHELIHASRTLQGTQYRVSRGRPDVDEDSGAAEEELRTVGIGQYEDEYPSENAIRREHGLAPRTSYSGNTGTNLREPPERNSQYTEARLRSLNARRWSDM | not soluble
8 | MNKEEQYLLFALSAPMEILNQGCKPAHDSPKMYTGIKEFELSSSWGINNRDDLIQTIYQMTDDGHANDLAGLYLTWHRSSPEEWKALIAGGSERGLIYTQFVAQTAMCCGEGGIKAWDYVRMGFLSRVGVLNKWLTEEESLWLQSRVYVRAHHYYHSWMHYFSAYSLGRLYWQSSQCEDNTSLREALTLYKYDSAGSRMFEELAAGSDRFYATLPWQPLTVQSECPVTLKDVSDL | soluble
9 | AEMKNLKIEVVRYNPEVDTAPHSAFYEVPYDATTSLLDALGYIKDNLAPDLSYRWSCRMAICGSCGMMVNNVPKLACKTFLRDYTDGMKVEALANFPIERDLVVDMTHFIESLEAIKPYIIGNSRTADQGTNIQTPAQMAKYHQFSGCINCGLCYAACPQFGLNPEFIGPAAITLAHRYNEDSRDHGKKERMAQLNSQNGVWSCTFVGYCSEVCPKHVDPAAAIQQGKVESSKDFLIATLKPR | soluble
10 | MGSDKIHHHHHHMLGTLKKMRVQLDDAQQVQYQLVVGDELLTLNPLIGKQLTLTHTGNIFCCNCGKKSKKSYSQGHCFVCMQKLASCDMCIMKPETCHYDQGTCREPEWAQSHCFVPHYVYLANTSGVKVGITRHTQLPTRWIDQGATQGLPIFKVSTRQLSGLVEVELAKLVNDKTHWQAMLKGHADDIDLNVKAAELIPQIEAKLHEIGMQKGDYSIERLDETIQPIHYPIDTFPKKITSHNFDKNGVVSGILQGIKGQYLMFDTGVINIRKFSSYEISVEHD | not soluble
11 | MSLKREIILYKSISTDLLEQLKNRFIVHQHQLKSEMDDSFFSDLQRVEGIIGSKLRVDGHLLDQAPHLKIVTNISVGYDNLEIEELTKRGIMATNTPDVLTDTVADTVFGLLLATSRRICELDQYVKLGRWDENIGEHLFGVDVHHKTLGIIGMGRIGLAVAERAHYGFKMKIVYHNRSTHSYAEKNINATYASLEELLTVSDFVLVMAPLVPETVKLIGEKEFDLMKETAIFLNGSRGELVDELALIHALQSKKIWGAGLDVYEQEPISKESLLLQLKNVVTLPHIGSATRETRYKMAKLAVDNLMKGFTGEVPPSLINPDVLTDEGHHHHHH | not soluble
12 | MGSDKIHHHHHHMRINPGEITKVLEEKIKSFEEKIDLEDTGKVIQVGDGIARAYGLNKVMVSELVEFVETGVKGVAFNLEEDNVGIIILGEYKDIKEGHTVRRLKRIIEVPVGEELLGRVVNPLGEPLDGKGPINAKNFRPIEIKAPGVIYRKPVDTPLQTGIKAIDSMIPIGRGQRELIIGDRQTGKTAIAIDTIINQKGQGVYCIYVAIGQKKSAIARIIDKLRQYGAMEYTTVVVASASDPASLQYIAPYAGCAMGEYFAYSGRDALVVYDDLSKHAVAYRQLSLLMRRPPGREAYPGDIFYLHSRLLERAVRLNDKLGGGSLTALPIVETQANDISAYIPTNVISITDGQIYLEPGLFYAGQRPAINVGLSVSRVGGSAQIKAMKQVAGMLRIDLAQYRELETFAQFATELDPATRAQIIRGQRLMELLKQEQYSPMPVEEQVVVLFAGVRGYLDDLPVEEVRRFEKEFLRFMHEKHQDILDDIKTKKELTSETEEKLKKAIEEFKTTFRV | not soluble
13 | MSLQIAGKVVVVTGGGNGIGQALCEAFHKAGAAKVVVADLDQARAEAVAASIGGAAFKCDVANEADIKHVIEETERQFGPIDLFCSNAGIGGGFDPMAENAGGASDEPFMKSWMIHVMAHVYAARHLVPRYRARGGGYFLNTISAAGLLSQVGSPAYSATKHGAVGFAESLAIAHKAHNIRVSILCPQGVDTNMLRSIPKGPQSADGDLTAEQVAKDALQGIEQETFLILPHPQVIDYMRKKTEGHHHHHH | soluble
14 | MGHHHHHHSHMVEFPLPPHLTCAVIKAASLDCEDLLLPIAAMLSVENVFIRPVDPEYQKEAEQRHRELAAKAGGFNDFATLAVIFEQCKSSGAPASWCQKHWIHWRCLFSAFRVEAQLRELIRKLKQQSDFPKETFEGPKHEVLRRCLCAGYFKNVARRSVGRTFCTMDGRGSPVHIHPSSALHEQETKLEWIIFHEVLVTTKVYARIVCPIRYEWVRDLLPKLHEFNAHDLSSVARREVREDARRRWTNKENVKQLKDGISKDVLKKMQRRNDDKSISDARARFLERKQQRTQDHSDTRKETG | not soluble
15 | MSLSAQHAAHAQADTITALGAYLTTLAESHGQDEVAQAMCEIATQTLPRSCGELWQLSLDREGWYHGGGWQTGTVLPPQGYTLRATLPRGPTDELRLPLQAHGLTVGEVRAPYEGLESEQEQQLLQTLSTAAAISLSGHLLQRRVRHRNVRDPLTGLFNRRYLEDTLERELHRARRVNAGLVLIRLEVDTLDAFAAEHGSETADRLMQAMADAVHHAFRGSDVCCRAGDDGFGILLPDASLDNGAMRAEAVREELAELRIHQRGRPLGPVTVSAGVAAYPDHSSNRDLLLDAAESAVTRARDEGGDVLRIAELVSPPNPNQGHHHHHH | soluble
16 | MAAKVVLDFEKPLYELEEKLNEMRVYLKSGEVDSMSEGRAGLKREIESLEAKVESLRKTIYKNLTRWQKVQLARHPERPYTLDYIYMMMKDFVELSGDRNFGDDKAIIGGFARLEDESAGFSQSVMVIGHQKGRDTKSNLYRNFGMAQPEGYRKALRLMKLAEKFRKPVITLIDTPGAFPGIEAEERGQAEAIARNLYEMAALKVPVICVIIGEGASGGAIGIGVGDRILMAENAWYSVISPESCSSILWRSWNFKEQAAEALKLTADDLLAQGIIDRIVTEPLGGAHHNPEQMASTLKSILIEELQGLLTKDARTLVDERIAKFSGMGVWEES | not soluble
17 | GSCASCPNNCENGLCTNSCDFEDLLSNCESLKTSAGCKHELLKTKCQATCLCEDKIH | soluble
